# Laboratory results as given in patent US9913914B2, “Cell transport” (priority 2013, dated 2018).
# B1: Cupid B-PTEN peptide: SEQ ID NO: 12; His-tagged Cupid B fused to 167 amino acid C2 region (186-352) of human PTEN (protein, listed as Homo sapiens)
# chain: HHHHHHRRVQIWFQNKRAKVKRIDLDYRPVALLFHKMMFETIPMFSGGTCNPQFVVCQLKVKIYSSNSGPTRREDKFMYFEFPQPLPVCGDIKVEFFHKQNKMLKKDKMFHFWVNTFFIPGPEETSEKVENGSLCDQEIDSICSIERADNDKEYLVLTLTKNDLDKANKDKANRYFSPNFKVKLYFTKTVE
# modifications: His tag
# notes: His-tagged Cupid B fused to 167 amino acid C2 region (186-352) of human PTEN
# Legend:
# Format in all cases: cell-based, Dictyostelium discoideum
# [1] = tested on: Dictyostelium cells (PTEN-null phenotype); assay: Streaming/aggregation of starved wild-type Dictyostelium cultures compared with PTEN-null mutant; conditions: 10 micromolar dose
# Protocol: FIG. 8. Cupid can transport large molecule cargo into the cell. Starved Dictyostelium cultures were plated into petri dishes in starvation buffer and visualised after 10 hours. In untreated wild-type (WT) cultures (A), cells stream together into aggregation centres, co-ordinated by cell to cell signaling.
# In Dictyostelium, a genetic mutant in which the PTEN gene is absent causes marked changes in phenotype.
# [2] = tested on: PTEN; assay: Inositol phospholipid levels in starving Dictyostelium cells (solvent extraction, thin layer chromatography); conditions: 10 micromolar, 1 hour
# Protocol: FIG. 9. The levels of the 4 inositol phospholipids (PI, PIP, PIP2 and PIP3) in wild-type Dictyostelium cells undergoing starvation were measured by solvent extraction of cell cultures and analysis using thin layer chromatography. The effect of Cupid B-PTEN peptide treatment (10 micromolar, 1 hour) was calculated as a percentage change in the basal (untreated) levels.
# The PTEN protein has a phospholipase enzymatic activity that functions to remove phosphate groups from inositol-based lipids and as such is involved with maintaining the balance between varieties of inositol phospholipids present at the cell surface. In wild-type cells undergoing starvation the inositol phospholipids with 3 and 4 phosphate groups (PIP2 and PIP3) are kept low, largely due to the action of PTEN.
# We determined the effect of Cupid B-PTEN peptide on the inositol phospholipid levels in Dictyostelium cultures. Cupid B-PTEN peptide treated cells (10 micromolar, 1 hour) alters the basal levels of inositol phospholipids in Dictyostelium cells.
# [3] = tested on: PTEN; assay: Protein phosphorylation response to cyclic AMP in starving Dictyostelium cultures (antibody detection on SDS gels); conditions: pretreated 1 hour, 10 micromolar
# Excerpt: FIG. 10. In starving Dictyostelium cultures, several proteins undergo rapid phosphorylation/dephosphorylation events in response to an applied dose of cyclic AMP. The strength of this response is limited by PTEN enzyme activity. This response is visualised with antibody detection of these phosphoproteins on SDS gels prepared from extracted cultures at the time points indicated after the cAMP dose.
# In starving Dictyostelium cultures, several proteins undergo rapid phosphorylation/dephosphorylation events in response to an applied dose of cyclic AMP. The strength of this initial phosphorylation response is limited by PTEN enzyme activity and is associated with changes in PIP2 and PIP3 inositol phospholipid levels.
molecule,measurement,setting,value
B1,aggregation behaviour of wild-type cells during starvation,[1],exhibit the same distinctive behaviour as the PTEN-Null strain
same,level of PIP2 relative to untreated basal levels,[2],+75%
same,level of PIP3 relative to untreated basal levels,[2],+150%
same,initial phosphorylation response to cyclic AMP versus untreated cultures,[3],much stronger initial phosphorylation response
